Data on 1 molecule can be found in PMC10624354.

The target in this series is T1, PIF4 (Arabidopsis thaliana, UniProt Q8W2F3 1-430).
T1 sequence: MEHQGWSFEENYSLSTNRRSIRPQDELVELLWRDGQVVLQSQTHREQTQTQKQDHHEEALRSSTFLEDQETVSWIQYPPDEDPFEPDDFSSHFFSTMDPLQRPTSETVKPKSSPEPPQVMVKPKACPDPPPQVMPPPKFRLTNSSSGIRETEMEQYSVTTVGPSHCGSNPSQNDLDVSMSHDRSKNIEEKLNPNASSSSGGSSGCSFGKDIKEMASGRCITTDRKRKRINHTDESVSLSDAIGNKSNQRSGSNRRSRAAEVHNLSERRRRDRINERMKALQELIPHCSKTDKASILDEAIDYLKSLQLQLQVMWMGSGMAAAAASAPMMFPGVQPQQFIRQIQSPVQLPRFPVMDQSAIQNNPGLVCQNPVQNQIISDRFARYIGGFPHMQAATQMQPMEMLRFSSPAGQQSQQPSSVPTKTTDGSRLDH
The experiment in a line: EMSA. For orientation: A gel shift assay detects complexes by their altered migration in electrophoresis.

B1: YUC8pro (WT) (dsDNA)
DNA 1: TCTTTTTCTTCCCCACGTGGCTTCCTCTCGTTGGTCCCACAA
DNA 2: TTGTGGGACCAACGAGAGGAAGCCACGTGGGGAAGAAAAAGA
Regarding B1, the binding result is “binds”.
